Test results taken from patent publication US20200199236A1 (BIO THERA SOLUTIONS, published 2020).

T1: CD20 (UniProt P11836 1-297, limits assumed)
T1 construct: whole, on cells; Endogenous CD20 on Raji and Wil2-s cell lines; also called CD20 on Raji cells; CD20 on Wil2-s cells
T1 sequence (looked up): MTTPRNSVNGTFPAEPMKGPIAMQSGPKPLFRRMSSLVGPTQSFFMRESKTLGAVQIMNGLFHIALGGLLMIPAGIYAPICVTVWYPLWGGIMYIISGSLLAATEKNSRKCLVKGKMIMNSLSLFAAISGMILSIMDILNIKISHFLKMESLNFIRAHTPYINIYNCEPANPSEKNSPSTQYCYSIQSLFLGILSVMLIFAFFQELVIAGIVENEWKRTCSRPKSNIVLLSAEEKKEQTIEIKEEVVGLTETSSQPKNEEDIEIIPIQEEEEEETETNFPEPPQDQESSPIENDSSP


Key:
[1] = target: T1, CD20; assay: flow cytometry, antibody titrated on Raji cells, FITC anti-human IgG1 Fab secondary
[2] = target: T1, CD20; assay: flow cytometry on Raji cells; Kd=[Ab]*{Fmax/(F-Fback)-1}
[3] = target: T1, CD20; assay: flow cytometry, antibody titrated on Wil2-s cells, FITC anti-human IgG1 Fab secondary
[4] = target: T1, CD20; assay: flow cytometry on Wil2-s cells; Kd=[Ab]*{Fmax/(F-Fback)-1}
[5] = target: T1, CD20; assay: flow cytometry; Mean Kd over Raji and Wil2-s cells
[6] = target: T2, FcγRIIIa 158V (UniProt P08637 17-208, biotin-labeled (site not stated)); assay: biosensor with SA sensor, biotin-FcγRIIIa 158V loaded, antibody in solution (7 concentrations, 2x gradient from 500 nM)
T2 construct: also called biotin-labeled FcγRIIIa 158V
Procedure: The sensor was pre-wetted in PBS for 10 min. […] AB solution, […], regeneration buffer, drug diluent and neutralization buffer were sequentially added to the corresponding columns of a 96-well plate. The SA sensor operates as follows: Baseline: detected the baseline in AB, 150 s; Association: combined in the gradient concentration of drug diluent sample and blank (AB) for 90 s; Dissociation: dissociated in AB for 120 s; Regeneration: regenerated in NaOH (pH 10.5) for 5 s; Neutralization: neutralized in AB for 5 s. The regeneration and neutralization cycles were carried out for 3 times. The collected data were analyzed by the instrument data analysis software Acquisition 8.2. Taking Baseline acquisition signal as a baseline and subtracting the reference signal (double deduction of sample blank and sensor blank), the data were subject to group analysis and fitted.

T2 sequence (P08637 17-208 F176V): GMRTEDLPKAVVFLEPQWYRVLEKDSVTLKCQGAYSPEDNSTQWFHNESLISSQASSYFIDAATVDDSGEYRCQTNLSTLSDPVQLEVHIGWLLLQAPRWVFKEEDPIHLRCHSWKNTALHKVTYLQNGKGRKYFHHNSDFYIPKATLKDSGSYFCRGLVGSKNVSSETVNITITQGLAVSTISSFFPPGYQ

Binder | IC50 [1] [nM] | Kd [2] [nM] | IC50 [3] [nM] | Kd [4] [nM] | Kd [5] [nM] | Kd [6] [nM]
Rituximab (antibody, V domains shown) VH: QVQLQQPGAELVKPGASVKMSCKASGYTFTSYNMHWVKQTPGRGLEWIGAIYPGNGDTSYNQKFKGKATLTADKSSSTAYMQLSSLTSEDSAVYYCARSTYYGGDWYFNVWGAGTTVTVSA VL: QIVLSQSPAILSASPGEKVTMTCRASSSVSYIHWFQQKPGSSPKPWIYATSNLASGVPVRFSGSGSGTSYSLTISRVEAEDAATYYCQQWTSNPPTFGGGTKLEIK | 13.3 | 12.7 | 16.8 | 16 | 14.3 | –
BAT4306F (antibody, human IgG1, N-linked oligosaccharide without fucose (produced in FUT8 knockout CHO-2G8 / CHO-BAT-KF cells), Humanized anti-CD20 IgG with B-HH6 heavy and B-KV1 light variable regions from B-Ly1 (WO2005044859); Non-fucosylated glycoform; also called carbohydrate chain modified BAT4306F) light: DIVMTQTPLSLPVTPGEPASISCRSSKSLLHSNGITYLYWYLQKPGQSPQLLIYQMSNLVSGVPDRFSGSGSGTDFTLKISRVEAEDVGVYYCAQNLELPYTFGGGTKVEIKR heavy: not shown | – | – | – | – | – | 25.7
